Measurements published in the supplement of paper PMC9170038.

System: MS2 coat protein
Assay: apparent KD of MS2 coat protein; designed switch direction (-1 OFF switch, 1 ON switch): 1; higher = weaker reporter binding
Outline: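 Designed RNA switches with common flanks were made on Illumina chips by stalled E. coli RNA polymerase. Titration with SNAP-549-labelled MS2 coat protein doubled from 0.7 or 1.5 nM up to 3 µM. Apparent KD is each design's median over clusters after curve-fitting normalised fluorescence.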

[1] = input ligand: microRNA oligo, concentration not stated
[2] = Eterna round: R95, input ligand: FMN 200 uM
[3] = Eterna round: R95, input ligand: microRNA oligo, concentration not stated
[4] = Eterna round: R95, input ligand: none

Sequence | apparent KD of MS2 coat protein (input ligand: FMN 200 uM) [nM] | apparent KD of MS2 coat protein [1] [nM] | apparent KD of MS2 coat protein (input ligand: none) [nM] | apparent KD of MS2 coat protein [2] [nM] | apparent KD of MS2 coat protein [3] [nM] | apparent KD of MS2 coat protein [4] [nM]
GCUGCAAUUAACGCCUACAUGAGGAUCACCCAUGUAUGUAGGCAGGAUAUCGUUUGCUUUGCAAACGAGAAGGGCUGUAGUAGC [JL SSNG3 1.13] (Eterna round: R96, puzzle: Same State NG 3) | 67.2 | 84.5 | 108 | – | – | –
GCUGCAUGGGCAGGAUAUGGGUUCAGAGCGGAAGUGCGCUUUGAUACAUGAGGAUCACCCAUGUCCCAGAAGGGCCCAAGCGGC [Laleinza] (Eterna round: R96, puzzle: Same State NG 2) | 18.4 | 53.7 | 97.3 | – | – | –
GCUGGAACUCACAUGAGGAUCACCCAUGUUCCGGAAACGGCACAGGAUAUCUGUCCGAAAAGGUCAGAGAAGGGUGGAACCAGC [Fiskers NG3ss - 88] (Eterna round: R96, puzzle: Same State NG 3) | 189 | 43.5 | 90.4 | – | – | –
GCUUGACAUGAGGAUCACCCAUGUCAUGCGGACACAGGAUAUCGUGGCCUGAAGCCGUCAUGAGAAGGGUGACCAA [Bibiedce] (puzzle: Same State 1) | – | – | – | 28.3 | 17.3 | 17.6
GCUUGCGACGCAGGAUAUGGGUGCCUGUACAUGAGGAUCACCCAUGUUAAGGAACGGAUUACGUCUCAGAAGGGCGUGGCAGGC [Ceerce Mod] (Eterna round: R96, puzzle: Same State NG 2) | 37.1 | 31.1 | 1250 | – | – | –
GGAAACAACACAGGAUAUCCAGAUGAUGAUGAAGGAGAAGGGUGUGCCCACAUGAGGAUCACCCAUGUUACAACGAAUAGAUAA [racquet 1] (Eterna round: R96, puzzle: Same State NG 1) | 457 | 666 | 1240 | – | – | –
GGAAAGAGGUUAGGAUAUGCAUGUCUGGGACAUGAGGAUCACCCAUGUAAUAGAAGAAAUCUACAGUAGAAGGGACAAGGAAGG [AK SSNG2-V2-7] (Eterna round: R96, puzzle: Same State NG 2) | 89.9 | 62.7 | 75.2 | – | – | –
GGAAGGAAGUCAGGAUAUGAAUGGAAAGUACAUGAGGAUCACCCAUGUUAUGGAGGAAGGAAACGUUAGAAGGGAUAAGGAAGG [AK SSNG2-V2-1.1] (Eterna round: R96, puzzle: Same State NG 2) | 67.8 | 45.2 | 63.7 | – | – | –
GGAAUAUGAUGUUACAUGAGGAUCACCCAUGUAGUAAUAACUAAGGAUAUCUGUUAAGAUAACUAAGAGAAGGUAGGAUCAUAA [AK SSNG3-V2-8.4] (Eterna round: R96, puzzle: Same State NG 3) | 22.2 | 20.5 | 22.1 | – | – | –
GGAAUAUGAUGUUACAUGAGGAUCACCCAUGUAGUGAUAACUAAGGAUAUCUGAAAGGAAGGAGAGGAGAAGGUAGGAUCAUAA [AK SSNG3-V2-13] (Eterna round: R96, puzzle: Same State NG 3) | 40.1 | 35.3 | 53.2 | – | – | –
GGAAUAUUUACAGGAUAUGAUUUGUAAAUUCGAUCAGAAGGGUAGAUGUCUUACACGGUUUGUUACAUGAGGAUCACCCAUGUU [SameState NG1 #11] (Eterna round: R96, puzzle: Same State NG 1) | – | 109 | – | – | – | –
GGACGUCAAUAUGAAUUCCCACAUGAGGAUCACCCAUGUCAUGAGGAUAUGGAUCCUAAUUGGAUCCAGAAGGCAUGGACGUCC [Fiskers NG3ss - 37] (Eterna round: R96, puzzle: Same State NG 3) | 17.8 | 13 | 17.8 | – | – | –
GGAGAACAUGAGGAUCACCCAUGUAAGAGAAGUGUAGGAUAUGUGAGGAGCAGAGGAGGAACAGAAGGACAUGGAG [JR_SS!_Sub071] (puzzle: Same State 1) | – | – | – | 29.8 | 41 | 58.3
GGAGAACAUGAGGAUCACCCAUGUAAGCGUUAGCUAGGAUAUGCGGGAAGGAAGAGAGAAGCAGAAGGAGUCGGUA [JR_SS1_Sub032] (puzzle: Same State 1) | – | – | – | 34.9 | 39.4 | 67.8
GGAGAACAUGAGGAUCACCCAUGUGAGAGGGAUGUAGGAUAUGUGAGGAGUAGAGGAGGGACAGAAGGACAGAGAU [JR_SS!_Sub069] (puzzle: Same State 1) | – | – | – | 28 | 62.9 | 52.6
GGAGAGAGAGCGCAGGAUAUUUGAGGAGAAACAUGAGGAUCACCCAUGUGAGAGAGAGAGGAGAAAGAGAAGGGUGAGAGAGAGG [Altered State 2-15 - Jieux - Same State 2] (puzzle: Same State 2) | – | – | – | 41.9 | 52.9 | 57.8

Sequence | apparent KD of MS2 coat protein (input ligand: FMN 200 uM) [nM] | apparent KD of MS2 coat protein [1] [nM] | apparent KD of MS2 coat protein (input ligand: none) [nM] | apparent KD of MS2 coat protein [2] [nM] | apparent KD of MS2 coat protein [3] [nM] | apparent KD of MS2 coat protein [4] [nM]
GGAGCCAAGGCAGGAUAUUCAUAUUAAUAACAUGAGGAUCACCCAUGUAAGGCCAGAAGGCCUUGGGAGAAGGGCCAUGGCUCG [Xeonanis - 13 mod2] (Eterna round: R96, puzzle: Same State NG 2) | 21.4 | 70.4 | 106 | – | – | –
GGAGCCAAGGCAGGAUAUUCAUAUUAAUAACAUGAGGAUCACCCAUGUUGGGCCAGAAGGCCUUGGGAGAAGGGCCAUGGCUCG [Xeonanis - 13 mod17] (Eterna round: R96, puzzle: Same State NG 2) | 20.1 | 24.7 | 36.5 | – | – | –
GGAGCCAAGGCAGGAUAUUCAUAUUAAUUACAUGAGGAUCACCCAUGUUGGGCCAGAAGGCCUUGGGAGAAGGGCCAUGGCUCG [Xeonanis - 13 mod18] (Eterna round: R96, puzzle: Same State NG 2) | 27.1 | 56.5 | 84 | – | – | –
GGAGCCAAGGCAGGAUAUUCAUAUUAUAAACAUGAGGAUCACCCAUGUAGGGCCAGAAGGCCUUGGGAGAAGGGCCAUGGCUCG [Xeonanis - 13 mod16] (Eterna round: R96, puzzle: Same State NG 2) | 20.2 | 53.8 | 71 | – | – | –
GGAGCCGACACCGAGGAUAUUCAUAUUAAAACAUGAGGAUCACCCAUGUAGGCCAGAAGGCCUUGGGAGAAGGCGGAUCGGCUCG [Xeonanis - 8] (puzzle: Same State 2) | – | – | – | 21.2 | 240 | 301
GGAGCCGGCACCGAGGAUAUUCAUAUUAAAACAUGAGGAUCACCCAUGUACAGGAGAACCUGUUGGGAGAAGGCGGAUCGGCUCG [Xeonanis - 25] (puzzle: Same State 2) | – | – | – | 29.9 | 296 | 437
GGAGCCGGCACCGAGGAUAUUCAUAUUAAAACAUGAGGAUCACCCAUGUGGGCCAGAAGGCCUUGGGAGAAGGCGGAUCGGCUCG [Xeonanis - 1] (Eterna round: R96, puzzle: Same State 2) | 18.6 | 141 | 314 | – | – | –
GGAGCCGGCACCGAGGAUAUUCAUAUUAAAACAUGAGGAUCACCCAUGUGGGCCAGAAGGCCUUGGGAGAAGGCGGAUCGGCUCG [Xeonanis - 1] (puzzle: Same State 2) | – | – | – | 15.6 | 216 | 425
GGAGCCGGCACGGAGGAUAUUCAUAUUAAAACAUGAGGAUCACCCAUGUAGGCCAGAAGGCCUUGGGAGAAGGCCGAUCGGCUCG [Xeonanis - 15] (Eterna round: R96, puzzle: Same State 2) | 21.2 | 258 | 333 | – | – | –
GGAGCCGGCACGGAGGAUAUUCAUAUUAAAACAUGAGGAUCACCCAUGUAGGCCAGAAGGCCUUGGGAGAAGGCCGAUCGGCUCG [Xeonanis - 15] (puzzle: Same State 2) | – | – | – | 21.9 | 306 | 409
GGAGCCGGCAGGCAGGAUAUUCAUAUUAAAACAUGAGGAUCACCCAUGUAGGCCAGAAGGCCUUGGGAGAAGGGCCAUCGGCUCG [Xeonanis - 13] (puzzle: Same State 2) | – | – | – | 27.8 | 225 | 569
GGAGCCGGCCUAGGAUAUUUCAUAAAAGAACAUGAGGAUCACCCAUGUAGGCCAGAAGGCCUUGGGAAGAAGGAGGUCGGCUCC [Loop Effect - G28] (Eterna round: R96, puzzle: Same State NG 2) | 14.4 | 22.4 | 31.8 | – | – | –
GGAGCCGGCCUAGGAUAUUUCAUAAAUUUACAUGAGGAUCACCCAUGUAGGCCAGAAGGCCUUGGGAAGAAGGAGGUCGGCUCC [Loop Effect - U27,U28,U29] (Eterna round: R96, puzzle: Same State NG 2) | 11.3 | 27.5 | 40.5 | – | – | –
GGAGCCGGUACUGAGGAUAUUCAUAUUAAAACAUGAGGAUCACCCAUGUAGGCCAGAAGGCCUUGGGAGAAGGCGGACCAGCUCG [Atgexeedri - 1] (Eterna round: R96, puzzle: Same State 2) | 27.5 | 302 | 417 | – | – | –
GGAGCCGGUACUGAGGAUAUUCAUAUUAAAACAUGAGGAUCACCCAUGUAGGCCAGAAGGCCUUGGGAGAAGGCGGACCAGCUCG [Atgexeedri - 1] (puzzle: Same State 2) | – | – | – | 18.8 | 283 | 414
